“And” between values parts separate entries of the source, which are not always exact repeats. Identical values can stand only once.
Experiments:
[1] = biological target: the molecule itself; test: not stated; oligomeric states of purified orthologs and of full-length proteins, Figures S7A, S7B and S3J
[2] = biological target: the molecule itself; test: native gel or EMSA; native PAGE of lysates of HEK293 cells transfected with FLAG- or HA-tagged proteins, immunoblotting; recombinant USP25 tetramer and dimer fractions as size standard

| Protein | stoichiometry N [1] | stoichiometry N [2] |
| --- | --- | --- |
| M. musculus USP25 (1-1055) (enzyme, mouse (Mus musculus), UniProt P57080 1-1055, looked up, dimer-tetramer equilibrium; also called full-length mouse USP25; source: E. coli Rosetta2(DE3)pLacI, purified (HisTrap, 3C protease, Resource Q, size exclusion)) MTVEQNVLQQSAAQKHQQTFLNQLREITGINDAQILQQALKDSNGNLELAVAFLTAKNAKTPPQEETGYYQTALPGNDRYISVGSQADANVIDLTGDDKDDLQRAIALSLAESNRAFRETGITDEEQAISRVLEASIAENKACLKRTPIEVWRDSRNPYDRKRQEKAPVGLKNVGNTCWFSAVIQSLFNLLEFRRLVLNYKPPSNAQDLPRNQKEHRNLPFMRELRYLFALLVGTKRKYVDPSRAVEILKDAFKSNDSQQQDVSEFTHKLLDWLEDAFQMKAEEETDEEKPKNPMVELFYGRFLAMGVLEGKKFENTEMFGQYPLQVNGFKDLHECLEAAMIEGEIESLHSDNSGKSGQEHWFTELPPVLTFELSRFEFNQALGRPEKIHNKLEFPQVLYLDRYMHRNREITRIKREEIKRLKDYLTVLQQRLERYLSYGSGPKRFPLVDVLQYALEFASSKPVCTSPVDDIDASSSASGPLPSQSLPSTTEQQGPCASDLPGSSSPASGAALPLRSVIHKPFTQSRIPPDLPMHPAPRHITEEELCVLESCLHRWRTEIENDTRDLQESISRIHRTIELMYSDKSMIQVPYRLHAVLVHEGQANAGHYWAYIFDHRESRWMKYNDIAVTKSSWEELVRDSFGGYRNASAYCLMYIDDKAQFLIQEEFNKETGQALVGMETLPPDLRDFVEEDNQRFEKELEEWDTQLAQRSLQEKLLAAPKLREAEASATTAQAGGADYLEQPSRSDLSKHWKEETLRVIAKASHDLEDKGPETVLQSAIKLEYSRLVKLAQEDTPPETDYRLHHVLVYFIQNQAPKKIIEKTLLEQFGDRNLSFDERCHNIMKVAQAKLEMIKPEEVNLEEYEEWHADYKKFRETTMYLITGLENFQRESYIDSLLFLLCAYQNNKELLSKGPYRGHDGELISHYRRECLLKLNEQAAELFESGEDGDVNNGLIIMNEFIVPFLPLLLVDDMEEKDILAVEDMRNRWCSYLGQEMEANLQEKLTDFLPKLLDCSTEIKGFHEPPKLPSYSAHELCERFARIMLSLSRTPADGR | 2 and 4 |  |
| HA-USP28 (2-1077) (enzyme, human, UniProt Q96RU2 2-1077, looked up, USP28, human, residues 2-1077; also called hemagglutinin (HA)-tagged USP28, wild type; source: HEK293, transfected (pOPINE), in lysate; not shown: HA, N-terminal, kept) TAELQQDDAAGAADGHGSSCQMLLNQLREITGIQDPSFLHEALKASNGDITQAVSLLTDERVKEPSQDTVATEPSEVEGSAANKEVLAKVIDLTHDNKDDLQAAIALSLLESPKIQADGRDLNRMHEATSAETKRSKRKRCEVWGENPNPNDWRRVDGWPVGLKNVGNTCWFSAVIQSLFQLPEFRRLVLSYSLPQNVLENCRSHTEKRNIMFMQELQYLFALMMGSNRKFVDPSAALDLLKGAFRSSEEQQQDVSEFTHKLLDWLEDAFQLAVNVNSPRNKSENPMVQLFYGTFLTEGVREGKPFCNNETFGQYPLQVNGYRNLDECLEGAMVEGDVELLPSDHSVKYGQERWFTKLPPVLTFELSRFEFNQSLGQPEKIHNKLEFPQIIYMDRYMYRSKELIRNKRECIRKLKEEIKILQQKLERYVKYGSGPARFPLPDMLKYVIEFASTKPASESCPPESDTHMTLPLSSVHCSVSDQTSKESTSTESSSQDVESTFSSPEDSLPKSKPLTSSRSSMEMPSQPAPRTVTDEEINFVKTCLQRWRSEIEQDIQDLKTCIASTTQTIEQMYCDPLLRQVPYRLHAVLVHEGQANAGHYWAYIYNQPRQSWLKYNDISVTESSWEEVERDSYGGLRNVSAYCLMYINDKLPYFNAEAAPTESDQMSEVEALSVELKHYIQEDNWRFEQEVEEWEEEQSCKIPQMESSTNSSSQDYSTSQEPSVASSHGVRCLSSEHAVIVKEQTAQAIANTARAYEKSGVEAALSEVMLSPAMQGVILAIAKARQTFDRDGSEAGLIKAFHEEYSRLYQLAKETPTSHSDPRLQHVLVYFFQNEAPKRVVERTLLEQFADKNLSYDERSISIMKVAQAKLKEIGPDDMNMEEYKKWHEDYSLFRKVSVYLLTGLELYQKGKYQEALSYLVYAYQSNAALLMKGPRRGVKESVIALYRRKCLLELNAKAASLFETNDDHSVTEGINVMNELIIPCIHLIINNDISKDDLDAIEVMRNHWCSYLGQDIAENLQLCLGEFLPRLLDPSAEIIVLKEPPTIRPNSPYDLCSRFAAVMESIQGVSTVTVK |  | 2 |
| Flag-USP25 (2-1055) (enzyme, human, UniProt Q9UHP3 2-1055, looked up, tetrameric and dimeric populations; also called FLAG-tagged USP25; ectopically expressed wild-type USP25; source: HEK293, transfected (pOPINE), in lysate; not shown: Flag, N-terminal, kept) TVEQNVLQQSAAQKHQQTFLNQLREITGINDTQILQQALKDSNGNLELAVAFLTAKNAKTPQQEETTYYQTALPGNDRYISVGSQADTNVIDLTGDDKDDLQRAIALSLAESNRAFRETGITDEEQAISRVLEASIAENKACLKRTPTEVWRDSRNPYDRKRQDKAPVGLKNVGNTCWFSAVIQSLFNLLEFRRLVLNYKPPSNAQDLPRNQKEHRNLPFMRELRYLFALLVGTKRKYVDPSRAVEILKDAFKSNDSQQQDVSEFTHKLLDWLEDAFQMKAEEETDEEKPKNPMVELFYGRFLAVGVLEGKKFENTEMFGQYPLQVNGFKDLHECLEAAMIEGEIESLHSENSGKSGQEHWFTELPPVLTFELSRFEFNQALGRPEKIHNKLEFPQVLYLDRYMHRNREITRIKREEIKRLKDYLTVLQQRLERYLSYGSGPKRFPLVDVLQYALEFASSKPVCTSPVDDIDASSPPSGSIPSQTLPSTTEQQGALSSELPSTSPSSVAAISSRSVIHKPFTQSRIPPDLPMHPAPRHITEEELSVLESCLHRWRTEIENDTRDLQESISRIHRTIELMYSDKSMIQVPYRLHAVLVHEGQANAGHYWAYIFDHRESRWMKYNDIAVTKSSWEELVRDSFGGYRNASAYCLMYINDKAQFLIQEEFNKETGQPLVGIETLPPDLRDFVEEDNQRFEKELEEWDAQLAQKALQEKLLASQKLRESETSVTTAQAAGDPEYLEQPSRSDFSKHLKEETIQIITKASHEHEDKSPETVLQSAIKLEYARLVKLAQEDTPPETDYRLHHVVVYFIQNQAPKKIIEKTLLEQFGDRNLSFDERCHNIMKVAQAKLEMIKPEEVNLEEYEEWHQDYRKFRETTMYLIIGLENFQRESYIDSLLFLICAYQNNKELLSKGLYRGHDEELISHYRRECLLKLNEQAAELFESGEDREVNNGLIIMNEFIVPFLPLLLVDEMEEKDILAVEDMRNRWCSYLGQEMEPHLQEKLTDFLPKLLDCSMEIKSFHEPPKLPSYSTHELCERFARIMLSLSRTPADGR |  | 4 and 2 |
| Flag-USP25 (2-1055) P521S F522E (enzyme, human, UniProt Q9UHP3 2-1055, looked up, also called USP25 mutated in the AIM (P521S F522E); source: HEK293, transfected (pOPINE), in lysate; not shown: Flag, N-terminal, kept) TVEQNVLQQSAAQKHQQTFLNQLREITGINDTQILQQALKDSNGNLELAVAFLTAKNAKTPQQEETTYYQTALPGNDRYISVGSQADTNVIDLTGDDKDDLQRAIALSLAESNRAFRETGITDEEQAISRVLEASIAENKACLKRTPTEVWRDSRNPYDRKRQDKAPVGLKNVGNTCWFSAVIQSLFNLLEFRRLVLNYKPPSNAQDLPRNQKEHRNLPFMRELRYLFALLVGTKRKYVDPSRAVEILKDAFKSNDSQQQDVSEFTHKLLDWLEDAFQMKAEEETDEEKPKNPMVELFYGRFLAVGVLEGKKFENTEMFGQYPLQVNGFKDLHECLEAAMIEGEIESLHSENSGKSGQEHWFTELPPVLTFELSRFEFNQALGRPEKIHNKLEFPQVLYLDRYMHRNREITRIKREEIKRLKDYLTVLQQRLERYLSYGSGPKRFPLVDVLQYALEFASSKPVCTSPVDDIDASSPPSGSIPSQTLPSTTEQQGALSSELPSTSPSSVAAISSRSVIHKSETQSRIPPDLPMHPAPRHITEEELSVLESCLHRWRTEIENDTRDLQESISRIHRTIELMYSDKSMIQVPYRLHAVLVHEGQANAGHYWAYIFDHRESRWMKYNDIAVTKSSWEELVRDSFGGYRNASAYCLMYINDKAQFLIQEEFNKETGQPLVGIETLPPDLRDFVEEDNQRFEKELEEWDAQLAQKALQEKLLASQKLRESETSVTTAQAAGDPEYLEQPSRSDFSKHLKEETIQIITKASHEHEDKSPETVLQSAIKLEYARLVKLAQEDTPPETDYRLHHVVVYFIQNQAPKKIIEKTLLEQFGDRNLSFDERCHNIMKVAQAKLEMIKPEEVNLEEYEEWHQDYRKFRETTMYLIIGLENFQRESYIDSLLFLICAYQNNKELLSKGLYRGHDEELISHYRRECLLKLNEQAAELFESGEDREVNNGLIIMNEFIVPFLPLLLVDEMEEKDILAVEDMRNRWCSYLGQEMEPHLQEKLTDFLPKLLDCSMEIKSFHEPPKLPSYSTHELCERFARIMLSLSRTPADGR |  | 2 |

Source: article PMC6509359 (Molecular Cell, 2019)
